The target of experiment [1] is T1, full-length YU2 gp120 (HIV-1 strain YU2, UniProt P35961 32-498).
T1 construct: domain: full-length gp120; also called wild-type gp120
The experiment can be described thus: SPR (Biacore), 1:1 Langmuir fit. A general note: SPR reads the build-up and loss of mass on a sensor chip optically.

Experiment [2] addresses T1, full-length YU2 gp120. The experiment can be described thus: SPR (Biacore).

Broadly, the Kd is the concentration at which binding is half-saturated. A lower Kd goes with tighter binding.

B1: VRC03 (antibody, V domains shown)
VH: QVQLVQSGAVIKTPGSSVKISCRASGYNFRDYSIHWVRLIPDKGFEWIGWIKPLWGAVSYARQLQGRVSMTRQLSQDPDDPDWGVAYMEFSGLTPADTAEYFCVRRGSCDYCGDFPWQYWGQGTVVVVSS
VL: EIVLTQSPGILSLSPGETATLFCKASQGGNAMTWYQKRRGQVPRLLIYDTSRRASGVPDRFVGSGSGTDFFLTINKLDREDFAVYYCQQFEFFGLGSELEVH
notes: also called mAb VRC03
In the experiment with full-length YU2 gp120 [1], B1 yielded a Kd of 73.1 nM. The “fold lower affinity than VRC01 and VRC02” value with full-length YU2 gp120 [2] is roughly 10 fold.

The values above are taken from US20160009789A1 (US Dept. of Health and Human Services, published 2016).
